# Measured values taken from a protein production outcome set (Wang et al. 2014).
# Experiment: label from the status in PepcDB records
# 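Further: failed if final PepcDB status was selected cloned or expressed and not failed if soluble or beyond.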
row,Sequence,protein production
1,HYRRALSGPVDPGLAVFSAYWDRGVSCNPAAIAAKLAELAPHIHPVWVVARNKAALLPPGTDHIVPGTRRYWEVMARAKYLVNNVNFPNSVVKRPDAIHLQTHHGTPLKRMGLDQREFPAASKGLDFGALLARIDKWDYSVSANSHSTRMWERAYPSHYISLDHGYPRNDVFYSATADDIRAIRDRLGIPPGRRAILYAPTHRDYEAGWTPRLDLASLADRLGEETVLLVRGHYFYGGAASPLAGLRRSGRVIDVSTYDPVEELCLAADALVTDYSSIMFDYANLNRPIVIYADDWETYAKTRGVYFDLMAEGPGQVTRTQDELAAVFESGAWRDEGARKALSAFRRRFCEFDDGRAAERVVR,failed
2,MSQSSSPQQIPVVVLAGFLGSGKTTLLNHLLHRSGGSRIGAIVNDFGAIEIDAMAVAGALGDSTVSLGNGCLCCAVDAGELDLYLERLAHPSARVDVIVIEASGLAEPQELVRMVLASENARVVYGGLVEVVDAAEFDATRAKHPEVDRHLAMADLVVVNKIDRADDGERVLRAVRSLTDRAAVVPATYGRVDPELLFDCRPTGERIGQLSFDDLHEHRGEEDHHGHLHAAYDSVSFTSEAPMNPRRMMDFLDSRPEGLYRIKGYVDFGTADPRNRYAVHAVGRFLRFYPEPWAPAGPRLTQLVLIGSGIDTAALHKELDACTNDAPHADEHSMWGVLRYVQEQEQEQEQRQETAEAEQAG,failed
3,MGSKTSPKWISAILRWPLLWHAARLALVSAYILGGFTKLLDLAGAAAEQEHFGLYPGWLWASAAILVELFGSLLVVINRWVWLGAGGLGILTFVAMLTANAFWTMGGHERFMATNAFFEHLGLIAGLVIVTILSEEAVTRPKSGAGSQAIQGVSR,failed
4,MHILVTGFAPFDNQNINPSWEAVTQLEDIIGTHTIDKLKLPTSFKKVDNIINKTLASNHYDVVLAIGQAGGRNAITPERVAINIDDARIPDNDDFQPIDQAIHLDGAPAYFSNLPVKAMTQSIINQGLPGALSNSAGTFVCNHTLYHLGYLQDKHYPHLRFGFIHVPYIPEQVIGKPDTPSMPLEKIVAGLTAAIEAISNDEDLHLALGTTE,failed
5,MAETSALPTGFGELEVLAVGMVLLVEALSGLSLNTLTIFSFCKTPELRTPCHLLVLSLALADSGISLNALVAATSSLLRRWPYGSDGCQAHGFQGFVTALASICSSAAIAWGRYHHYCTRSQLAWNSAVSLVLFVWLSSAFWAALPLLGWGHYDYEPLGTCCTLDYSKGDRNFTSFLFTMSFFNFAMPLFITITSYSLMEQKLGKSGHLQVNTTLPARTLLLGWGPYAILYLYAVIADVTSISPKLQMVPALIAKMVPTINAINYALGNEMVCRGIWQCLSPQKREKDRTK,failed
6,MKTLFLQYPACSTCQKAKKWLIENNIEYTNRLIVDDNPTVEELKAWIPLSGLPVKKFFNTSGVVYKELKLSSKLPTMTEEEQIALLATNGKLVKRPLVVTERFVLVGFKPEEWEKL,not failed
7,KGDDNYYIIFTSGTTGQPKGVQISHDNLLSFTNWMIEDAAFDVPKQPQMLAQPPYSFDLSVMYWAPTLALGGTLFALPKELVADFKQLFTTIAQLPVGIWTSTPSFADMAMLSDDFCQAKMPALTHFYFDGEELTVSTARKLFERFPSAKIINAYGPTEATVALSAIEITREMVDNYT,failed
8,SSEAKKGHVLFFPYPLQGHINPMIQLAKRLSKKGITSTLIIASKDHREPYTSDDYSITVHTIHDGFFPHEHPHAKFVDLDRFHNSTSRSLTDFISSAKLSDNPPKALIYDPFMPFALDIAKDLDLYVVAYFTQPWLASLVYYHINEGTYDVPVDRHENPTLASFPGFPLLSQDDLPSFACEKGSYPLLHEFVVRQFSNLLQADCILCNTFDQLEPKVVKWMNDQWPVKNIGPVVPSKFLDNRLPEDKDYELENSKTEPDESVLKWLGNRPAKSVVYVAFGTLVALSEKQMKEIAMAISQTGYHFLWSVRESERSKLPSGFIEEAEEKDSGLVAKWVPQLEVLAHESIGCFVSHCGWNSTLEALCLGVPMVGVPQWTDQPTNAKFIEDVWKIGVRVRTDGEGLSSKEEIARCIVEVMEGERGKEIRKNVEKLKVLAREAISEGGSSDKKIDEFVALLT,failed
9,MALLKSPIFGICFSLILYTIGQDLFKKSKGFFLLQPLFFAMVAGIIVLVLLAKGLGTDVKTLYTQAYKPGGDLIFWFLNPATIAFAVPLYKKNDAVKKYWKEIISSLIIGMVVSLIIIVAISKAIGLSQASTASMLPQAATTAIALPIAHAIGGNTAITAMACILNAVIIYALGKKLVALFHLNKSEIGVGLGLGTSGHTVGAAFALELGELQGAMAAIAVVVIGLVVDLVIPIFSYMIGLVH,failed
10,MTIQLLNDRYQVIRTLGAGGFGETYLAEDTYMPSKRRCVVKQLRPIQNNPQIYQLVQERFQREAAILEELGGATEQIPALYAYFSADGQFYLVQEWVEGDTLTGRLQQQGLFTESAIQELLVNLLPVLEYVHSKHIVHRDIKPDNIILRHRDGKPVLIDFGAVRESMGTVVNSQGNPTSSIVIGTPGYMPSEQAAGRPVYSSDLYSLGLTAIYLLTGRQPQTLEIDSQTGEIMWRQYASQMNPILASVLDKAIAYHPRDRYATARAMLDNLQSISSPIPPTQPYFAPPPVVSAPPQPTVPVAPQANVTGNNQKGILFGSLIAGGLIGASVIIGLAFTRTPQPVAENNNTSPVNSITETPVIKATPEVTQPPVTAQPIVPSPQQQVNSSPFPSITSVPIDVNINNNNYLWLSQQAVTDADLDDKDGYTLDIMRNTVFARHGRRFDNPGLQDYFNNQPWYNPIYSPKEFPIKLLTRLEQRNVDYIAAYQKRYNLRHFK,failed
11,MTAAIRRTVTFPGVSMARLKSMLGAYNGHLKQIEQRLDVQITHRGDAFYIDGDIDAVERAESLLQRLYNESETSDQISADILHLMIQGSQTDRELMDDSEQEHTGLDNVWLQTPKGRINPRGTNQKRYVQRILQSDISFGIGPAGTGKTYLAVAAAVDMLERNEIQRILLVRPAVEAGEKLGFLPGDLAQKIDPYLRPLYDALYEMLGFEKVAKLIERQVIEVAPLAYMRGRTLNHSFVILDEAQNTTPEQMKMFLTRLGFGSRAVITGDITQVDLPRGQQSGLAHALRVLEPIKEIHITRFHSRDVVRHQLVQKIVEAYEGWDSEQNRLSAEARAERKARQEALMSEHDAAADAQHQEA,failed
12,MTFPVIGVVGGGQLARMMAPPATALGFELRVLAEGEDVSAVAAVATAPIGDYKDLDALLEFSKGLDVMTFDHEHVPTQHLQALLDAGVNVQPGPDALVNAQDKLVMRAAIDRLGLPNPEWSAVNTVDELVAFGERIGWPVVLKTPRGGYDGKGVRMVDSADDALETADWFQAMSPLLAEAKVEFSRELSALVARSPSGESRAWPVVHTIQVDGVCDEVIAPAQNISVEVAAAAEEAALRIANELGVTGVMAAELFETPGVGVGFLINELAMRPHNTGHWTQDGSITSQFEQHLRAVLDLPLGATDALAPVVVMKNFLGGDNQDLFKAFPMALAFEPAAKVHSYGKSVRPGRKIGHVNLVGSSVSDVDSVRQRATAVANIIRDGRKPEQTTLEETA,failed
13,MSEEEQGSGTTTGCGLPSIEQMLAANPGKTPISLLQEYGTRIGKTPVYDLLKAEGQAHQPNFTFRVTVGDTSCTGQGPS,failed
14,MNKHFLETLLQKHQQAGTFPSTSDICRLVTRILLVLFPEQTQAKYKDVADVEIQMGVYQKELTRLLGSMQKDLPAPANELSDAFMNELSVIYDKLLLDIQAILNGDPAARSEFEVIRAYPGFYAIAFYRMAHALYKLNIPLMPRIIMEYAHSKTGIDIHPGATIGKNFYIDHGTGIVIGETAHIGDNVKVYQGVTLGALSVSKDKADTKRHPTIEDNVIIYSGATILGGKTVVGHDSIIGGNVWLTESVQPFTRVYHKAQIEVIIKNADPSLNETENNEEAIRKMKKAESENTKKNS,failed
15,MEAARSMTFSECAALYIKAHRSSWKNTKHADQWTNTIKTYCGPVIGPLSVQDVDTKLIMKVLDPIWEQKPETASRLRGRIESVLDWATVRGYREGDNPARWRGYLEHHHHHH,not failed
16,GPVPTPPDNIQVQENFNISRIYGKWYNLAIGSTCPWLKKIMDRMTVSTLVLGEGATEAEISMTSTRWRKGVCEETSGAYEKTDTDGKFLYHKSKWNITMESYVVHTNYDEYAIFLTKKFSRHHGPTITAKLYGRAPQLRETLLQDFRVVAQGVGIPEDSIFTMADRGECVPGEQEPEPILIPRV,not failed
17,MRVLITGATGGLGGAFARALKGHDLLLSGRRAGALAELAREVGARALPADLADELEAKALLEEAGPLDLLVHAVGKAGRASVREAGRDLVEEMLAAHLLTAAFVLKHARFQKGARAVFFGAYPRYVQVPGFAAYAAAKGALEAYLEAARKELLREGVHLVLVRLPAVATGLWAPLGGPPKGALSPEEAARKVLEGLFREPVPALLEV,not failed
18,MYMSSLQSTRERVLGTPRRRYKVLVAKMGLDGHDRGAKVVARALRDAGFEVVYTGLRQTPEQVAMAAVQEDVDVIGVSILNGAHLHLMKRLMAKLRELGADDIPVVLGGTIPIPDLEPLRSLGIREIFLPGTSLGEIIEKVRKLAEEKRMREEAEASEQVGQA,not failed
19,MRGWILYKETATQLKPEWYEIERLLAAAKADNIELEVYAPDEFDLTVTREDNKSILLNGQPVELPDFIIPRMGSGTTYFALAIIRHLERLGVYCLNPSKAIEIVKDKLFSQQLLAEKNLPTPKTMLVKFPVDIDLVERHLGFPVVIKTLSGSQGSGVFLSHKAREFDDLMQLIEATNKNANIILQEFIANSHGRDLRVFTIGGRVAGCYERRGQEDSFKANVSAGGSARPFDITPEIEWLATQTANILDLDVAGIDLLFDNGHYKICEANSSPGFEGLESCLNVDIAAQILHFIRIRLGMFNKDEKNSDPQLTHAGPALANNVTSSKAAE,failed
20,MEENMEKNKIKKIALIFNILQVIALAVFEVVLFRLVSYKNKLILDYVPAKYFIILEVVLVAITIIPFLIRKGKKTSIISMVISILMAIVLFATSILGVVYDKDIKNVLNKADQTIDDVVENSKLSTEEYGVYILKSDEAEELKDIENYNLGYNLSYAKDETDSVLKNVLAKANNKLIANEYDDLLKMADELLNTEKTAFIFNQAMLDLIENAGDDTNDGKNNGIYKNFTNKIKCIYVVNVKTAVKEYGGDKNVTKECFNVYISGIDTEGDVTAKSRSDVNIIMSINPVTHQVLLLSTPRDYYVPLSISNGVKDKLTHAGNYGINVSMDTLEMLYDIKLDYFIRLNFTGFVDIIDALGGIDVVSDYSFSTHGYSYSEGLNSNLSGIQALWFARERHAFAEGDKQRGRDQMKVIEAVIKKAQSSALLNNYDEIFANISKSFQTNMPKKDIKALVKYQLNETPNWKVVSTSVTGTGRSDVTYSVPNSRAYVMDPDENSVNEAKKLLQKIQNNKKIKVKTTTE,failed
21,MEVKMNEIMEALEQSELIIIHRHLRPDPDAYGSQLGLKYYLQKKFPNKQIYAVGANEDSLKFIGLMDEIDDDMYKKATVVVCDTANAPRIDDQRYDTGTKLLKIDHHPATDQYGDINYVNTKASSTSEIIYEFILHFNDEHIIDEQVARVLYLGIVGDTGRFLFNNTTPRTMQIAGKLLTYPFDHNQELNKMSEKDPKLLPFQGYILQNFDLNDKGFCKVKITKDILEKFQIQPNEASLFVNTIADIRGLKIWMFGVDEGDQIRCRLRSKGHIIINDVANTFGGGGHPNASGVSVNSWEQFEQLAEALNDKL,failed
22,MIYYGTMFDHKVRFSIVRMREVVEEARNRHALSYLATVVLGRALIGAALVTPWLAEKERWTLDIEGNGPIRRVVAQSTSEFTVRGYVANPKVELPLNEKGKFDVAGAIGQGVLRVVRDLGLKTPFVSQVPLVSGEIAEDLAYYFAVSEQIPSAFSIGVLVDSDGVKIAGGFAVQIIDRTLEQEKVEMIEKNIKNLPSISKLFQEAEPLDVLERIFGEKVGFVETAEIKYKCDCNREKAKNALLVLDKKELEDMRKEGKGEVVCKWCNTRYVFSEEELEELLKFKVDDSGS,not failed
